Measured values taken from doi:10.1101/2022.11.18.516900v2.

How the values were obtained:
purified protein [1] = substrate: Nc1nc2c(c(=O)[nH]1)N1CN(c3ccc(C(=O)N[C@@H](CCC(=O)O)C(=O)O)cc3)C[C@H]1CN2; assay: purified protein; settings: 100 μM NADH, 100 mM Mops/NaOH pH 7.0, 40 °C, under N2
purified protein [2] = substrate: NC(=O)C1=CN([C@@H]2O[C@H](COP(=O)(O)OP(=O)(O)OC[C@H]3O[C@@H](n4cnc5c(N)ncnc54)[C@H](O)[C@@H]3O)[C@@H](O)[C@H]2O)C=CC1; assay: purified protein; settings: 300 μM methylene-H4F, 100 mM Mops/NaOH pH 7.0, 40 °C, under N2

B1: hMfr (Mycolicibacterium hassiacum DSM 44199) (protein)
chain: MTLNTIALELVPPNSDGPDGGREQAVEDARKVLRCAAETGLAGRIGHVMIPGMIEEDPDRPIPMKPKMDVLDFWTIIRPELPGIRGLCTQVTAFLDEPALRRRLGDLSAAGFDGIAFVGVPRTMNDGEGHGVAPTDALSMFADLVPNRGAILIPTRDGEQGRFEFKCERGATYGMTQLLYSDAIVGFLREFARRTDHRPEILLSFGFVPKLEAKVGLINWLIQDPGNPAVAAEQEFVRRLAGLEPADKRKLMVDLYKRVIDGVADLGFPLSVHLEATYGVSVPAFETFAEMLAYWSPGQG
- Km (purified protein [1]): 160 ± 62 µM
- kcat (purified protein [1]): 9.83 ± 1.42 s⁻¹
- Km (purified protein [2]): 16 ± 3 µM
- kcat (purified protein [2]): 9 ± 0.383 s⁻¹

B2: hMfr (Mycolicibacterium hassiacum DSM 44199; E9Q) (protein)
chain: MTLNTIALQLVPPNSDGPDGGREQAVEDARKVLRCAAETGLAGRIGHVMIPGMIEEDPDRPIPMKPKMDVLDFWTIIRPELPGIRGLCTQVTAFLDEPALRRRLGDLSAAGFDGIAFVGVPRTMNDGEGHGVAPTDALSMFADLVPNRGAILIPTRDGEQGRFEFKCERGATYGMTQLLYSDAIVGFLREFARRTDHRPEILLSFGFVPKLEAKVGLINWLIQDPGNPAVAAEQEFVRRLAGLEPADKRKLMVDLYKRVIDGVADLGFPLSVHLEATYGVSVPAFETFAEMLAYWSPGQG
- Km (purified protein [1]): 250 ± 59 µM
- kcat (purified protein [1]): 0.0217 ± 0.0017 s⁻¹
- Km (purified protein [2]): 44 ± 13 µM
- kcat (purified protein [2]): 0.0183 ± 0.0017 s⁻¹
